Measurements as given in patent US20230114801A1 (SYSTIMMUNE, published 2023).

B1: SI-75P6 (other)
chain 1: DVVMTQSPSTLSASVGDRVTINCQASESISSWLAWYQQKPGKAPKLLIYEASKLASGVPSRFSGSGSGTEFTLTISSLQPDDFATYYCQGYFYFISRTYVNSFGGGTKVEIKGGGGSGGGGSGGGGSGGGGSEVQLVESGGGLVQPGGSLRLSCAASGFTISTNAMSWVRQAPGKGLEWIGVITGRDITYYASWAKGRFTISRDNSKNTLYLQMNSLRAEDTAVYYCARDGGSSAITSNNIWGQGTLVTVSSGGGGSGGGGSQVQLQQSGPGLVKPSETLSITCTVSGFSLTNYGVHWIRQAPGKGLEWLGVIWSGGNTDYNTPFTSRFTITKDNSKNQVYFKLRSVRADDTAIYYCARALTYYDYEFAYWGQGTLVTVSSASTKGPSVFPLAPSSKSTSGGTAALGCLVKDYFPEPVTVSWNSGALTSGVHTFPAVLQSSGLYSLSSVVTVPSSSLGTQTYICNVNHKPSNTKVDKRVEPKSCDKTHTCPPCPAPEAAGGPSVFLFPPKPKDTLMISRTPEVTCVVVDVSHEDPEVKFNWYVDGVEVHNAKTKPREEQYNSTYRVVSVLTVLHQDWLNGKEYKCAVSNKALPAPIEKTISKAKGQPREPQVYTLPPSRDELTKNQVSLSCAVKGFYPSDIAVEWESNGQPENNYKTTPPVLDSDGSFFLVSKLTVDKSRWQQGNVFSCSVMHEALHNHYTQKSLSLSPGGGGGSGGGGSDVVMTQSPSSVSASVGDRVTITCQASQNIRTYLSWYQQKPGKAPKLLIYAAANLASGVPSRFSGSGSGTDFTLTISDLEPGDAATYYCQSTYLGTDYVGGAFGGGTKLTVLGGGGSGGGGSGGGGSGGGGSEVQLVESGGGLVQPGGSLRLSCTASGFTISSYHMQWVRQAPGKGLEYIGTISSGGNVYYASSARGRFTISRPSSKNTVDLQMNSLRAEDTAVYYCARDSGYSDPMWGQGTLVTVSS
chain 2: QSALTQPASVSGSPGQSITISCTGTSSDVGGYNFVSWYQQHPGKAPKLMIYDVSDRPSGVSDRFSGSKSGNTASLIISGLQADDEADYYCSSYGSSSTHVIFGGGTKVTVLGGGGSGGGGSGGGGSGGGGSQVQLQESGGGLVKPGGSLSLSCAASGFTFSSYWMSWVRQAPGKGLEWVANINRDGSASYYVDSVKGRFTISRDDAKNSLYLQMNSLRAEDTAVYYCARDRGVGYFDLWGRGTLVTVSSGGGGSGGGGSEIVLTQSPSTLSVSPGERATFSCRASQSIGTNIHWYQQKPGKPPRLLIKYASESISGIPDRFSGSGSGTEFTLTISSVQSEDFAVYYCQQNNNWPTTFGPGTKLTVLRTVAAPSVFIFPPSDEQLKSGTASVVCLLNNFYPREAKVQWKVDNALQSGNSQESVTEQDSKDSTYSLSSTLTLSKADYEKHKVYACEVTHQGLSSPVTKSFNRGECGGDKTHTCPPCPAPEAAGGPSVFLFPPKPKDTLMISRTPEVTCVVVDVSHEDPEVKFNWYVDGVEVHNAKTKPREEQYNSTYRVVSVLTVLHQDWLNGKEYKCAVSNKALPAPIEKTISKAKGQPREPQVYTLPPSRDELTKNQVSLWCLVKGFYPSDIAVEWESNGQPENNYKTTPPVLDSDGSFFLYSKLTVDKSRWQQGNVFSCSVMHEALHNRFTQKSLSLSPGGGGGSGGGGSDIQMTQSPSTLSASVGDRVTITCQASQSISSHLNWYQQKPGKAPKLLIYKASTLASGVPSRFSGSGSGTEFTLTISSLQPDDFATYYCQQGYSWGNVDNVFGGGTKVTVLGGGGSGGGGSGGGGSGGGGSEVQLLESGGGLVQPGGSLSLSCAASGFSFSSGYDMCWVRQAPGKGLEWIACIAAGSAGITYDANWAKGRFTISRDNSKNTLYLQMNSLRAEDTAVYYCARSAFSFDYAMDLWGQGTLVTVSS
notes: penta-miniGNC, IgG1 knobs-into-holes heterodimer; D1 αCD3, D2 αHER3, D3 αEGFR (Fab), D4 α4-1BB, D5 αPD-L1; also called penta-miniGNC (SI-75P6)
B2: SI-75P3 (other)
chain 1: EIVLTQSPSTLSVSPGERATFSCRASQSIGTNIHWYQQKPGKPPRLLIKYASESISGIPDRFSGSGSGTEFTLTISSVQSEDFAVYYCQQNNNWPTTFGPGTKLTVLGGGGSGGGGSGGGGSGGGGSQVQLQQSGPGLVKPSETLSITCTVSGFSLTNYGVHWIRQAPGKGLEWLGVIWSGGNTDYNTPFTSRFTITKDNSKNQVYFKLRSVRADDTAIYYCARALTYYDYEFAYWGQGTLVTVSSGGGGSGGGGSEVQLVESGGGLVQPGGSLRLSCAASGFTISTNAMSWVRQAPGKGLEWIGVITGRDITYYASWAKGRFTISRDNSKNTLYLQMNSLRAEDTAVYYCARDGGSSAITSNNIWGQGTLVTVSSASTKGPSVFPLAPSSKSTSGGTAALGCLVKDYFPEPVTVSWNSGALTSGVHTFPAVLQSSGLYSLSSVVTVPSSSLGTQTYICNVNHKPSNTKVDKRVEPKSCDKTHTCPPCPAPEAAGGPSVFLFPPKPKDTLMISRTPEVTCVVVDVSHEDPEVKFNWYVDGVEVHNAKTKPREEQYNSTYRVVSVLTVLHQDWLNGKEYKCAVSNKALPAPIEKTISKAKGQPREPQVYTLPPSRDELTKNQVSLSCAVKGFYPSDIAVEWESNGQPENNYKTTPPVLDSDGSFFLVSKLTVDKSRWQQGNVFSCSVMHEALHNHYTQKSLSLSPGGGGGSGGGGSDVVMTQSPSSVSASVGDRVTITCQASQNIRTYLSWYQQKPGKAPKLLIYAAANLASGVPSRFSGSGSGTDFTLTISDLEPGDAATYYCQSTYLGTDYVGGAFGGGTKLTVLGGGGSGGGGSGGGGSGGGGSEVQLVESGGGLVQPGGSLRLSCTASGFTISSYHMQWVRQAPGKGLEYIGTISSGGNVYYASSARGRFTISRPSSKNTVDLQMNSLRAEDTAVYYCARDSGYSDPMWGQGTLVTVSS
chain 2: QSALTQPASVSGSPGQSITISCTGTSSDVGGYNFVSWYQQHPGKAPKLMIYDVSDRPSGVSDRFSGSKSGNTASLIISGLQADDEADYYCSSYGSSSTHVIFGGGTKVTVLGGGGSGGGGSGGGGSGGGGSQVQLQESGGGLVKPGGSLSLSCAASGFTFSSYWMSWVRQAPGKGLEWVANINRDGSASYYVDSVKGRFTISRDDAKNSLYLQMNSLRAEDTAVYYCARDRGVGYFDLWGRGTLVTVSSGGGGSGGGGSDVVMTQSPSTLSASVGDRVTINCQASESISSWLAWYQQKPGKAPKLLIYEASKLASGVPSRFSGSGSGTEFTLTISSLQPDDFATYYCQGYFYFISRTYVNSFGGGTKVEIKRTVAAPSVFIFPPSDEQLKSGTASVVCLLNNFYPREAKVQWKVDNALQSGNSQESVTEQDSKDSTYSLSSTLTLSKADYEKHKVYACEVTHQGLSSPVTKSFNRGECGGDKTHTCPPCPAPEAAGGPSVFLFPPKPKDTLMISRTPEVTCVVVDVSHEDPEVKFNWYVDGVEVHNAKTKPREEQYNSTYRVVSVLTVLHQDWLNGKEYKCAVSNKALPAPIEKTISKAKGQPREPQVYTLPPSRDELTKNQVSLWCLVKGFYPSDIAVEWESNGQPENNYKTTPPVLDSDGSFFLYSKLTVDKSRWQQGNVFSCSVMHEALHNRFTQKSLSLSPGGGGGSGGGGSDIQMTQSPSTLSASVGDRVTITCQASQSISSHLNWYQQKPGKAPKLLIYKASTLASGVPSRFSGSGSGTEFTLTISSLQPDDFATYYCQQGYSWGNVDNVFGGGTKVTVLGGGGSGGGGSGGGGSGGGGSEVQLLESGGGLVQPGGSLSLSCAASGFSFSSGYDMCWVRQAPGKGLEWIACIAAGSAGITYDANWAKGRFTISRDNSKNTLYLQMNSLRAEDTAVYYCARSAFSFDYAMDLWGQGTLVTVSS
notes: penta-miniGNC; D1 αEGFR, D2 αHER3, D3 αCD3 (Fab), D4 α4-1BB, D5 αPD-L1
B3: SI-75E2 (other)
chain 1: EIVLTQSPSTLSVSPGERATFSCRASQSIGTNIHWYQQKPGKPPRLLIKYASESISGIPDRFSGSGSGTEFTLTISSVQSEDFAVYYCQQNNNWPTTFGPGTKLTVLGGGGSGGGGSGGGGSGGGGSQVQLQQSGPGLVKPSETLSITCTVSGFSLTNYGVHWIRQAPGKGLEWLGVIWSGGNTDYNTPFTSRFTITKDNSKNQVYFKLRSVRADDTAIYYCARALTYYDYEFAYWGQGTLVTVSSGGGGSGGGGSEVQLVESGGGLVQPGGSLRLSCAASGFTISTNAMSWVRQAPGKGLEWIGVITGRDITYYASWAKGRFTISRDNSKNTLYLQMNSLRAEDTAVYYCARDGGSSAITSNNIWGQGTLVTVSSASTKGPSVFPLAPSSKSTSGGTAALGCLVKDYFPEPVTVSWNSGALTSGVHTFPAVLQSSGLYSLSSVVTVPSSSLGTQTYICNVNHKPSNTKVDKRVEPKSCDKTHTCPPCPAPEAAGGPSVFLFPPKPKDTLMISRTPEVTCVVVDVSHEDPEVKFNWYVDGVEVHNAKTKPREEQYNSTYRVVSVLTVLHQDWLNGKEYKCAVSNKALPAPIEKTISKAKGQPREPQVYTLPPSRDELTKNQVSLSCAVKGFYPSDIAVEWESNGQPENNYKTTPPVLDSDGSFFLVSKLTVDKSRWQQGNVFSCSVMHEALHNHYTQKSLSLSPG
chain 2: B2 chain 2
notes: tetra-miniGNC; D1 αEGFR, D2 αHER3, D3 αCD3 (Fab), D5 αPD-L1; also called tetra-miniGNC (SI-75E2)

Tests used:
Test in all cases: BLI (Octet), binder on AHC sensor, 100 nM human antigen, 1:1 fit
human CD3 = target: T1, human CD3 (human, UniProt P07766 23-126; P04234 22-105)
T1 construct: also called His-tagged human CD3; human CD3 (Acro CDD-H52W1)

human EGFR = target: T2, human EGFR (human, UniProt P00533 25-645, limits assumed)
T2 construct: Soluble antigen in Octet; construct not described

human 4-1BB = target: T3, human 4-1BB (human, UniProt Q07011 24-186, limits assumed)
T3 construct: Soluble antigen in Octet; construct not described

human PD-L1 = target: T4, human PD-L1 (human, UniProt Q9NZQ7 19-238)
T4 construct: Soluble antigen in Octet; bought; also called human PD-L1 (Acro PD1-H5229)

human HER3 = target: T5, human HER3 (human, UniProt P21860 20-643)
T5 construct: Soluble antigen in Octet; bought; also called human HER3 (Acro ER3-H5223)

Binder	Kd (human CD3)	Kd (human EGFR)	Kd (human 4-1BB)	Kd (human PD-L1)	Kd (human HER3)
B1	36.2 nM	5.56 nM	37.3 nM	1.45 nM	–
B2	17.4 nM	8.91 nM	7.51 nM	1 nM	–
B3	22.1 nM	8.24 nM	–	1.36 nM	114 nM
